The values below come from publication PMC4104448 (2014).

B5: Biotinylated human β-glucocerebrosidase (residues 40A-536R) (enzyme)
chain: ARPCIPKSFGYSSVVCVCNATYCDSFDPPTFPALGTFSRYESTRSGRRMELSMGPIQANHTGTGLLLTLQPEQKFQKVKGFGGAMTDAAALNILALSPPAQNLLLKSYFSEEGIGYNIIRVPMASCDFSIRTYTYADTPDDFQLHNFSLPEEDTKLKIPLIHRALQLAQRPVSLLASPWTSPTWLKTNGAVNGKGSLKGQPGDIYHQTWARYFVKFLDAYAEHKLQFWAVTAENEPSAGLLSGYPFQCLGFTPEHQRDFIARDLGPTLANSTHHNVRLLMLDDQRLLLPHWAKVVLTDPEAAKYVHGIAVHWYLDFLAPAKATLGETHRLFPNTMLFASEACVGSKFWEQSVRLGSWDRGMQYSHSIITNLLYHVVGWTDWNLALNPEGGPNWVRNFVDSPIIVDITKDTFYKQPMFYHLGHFSKFIPEGSQRVGLVASQKNDLDAVALMHPDGSAVVVVLNRSSKDVPLTIKDPAVGFLETISPGYSIHTYLWRRQ
modifications: biotin (in vivo biotinylated by BirA)

Test [1] concerns the target B5. Kind of test: SPR. (SPR reads the build-up and loss of mass on a sensor chip optically.)
Test [2] has as its target B5. Kind of test: SPR; 2 mM M6P.
Test [3] has as its target B5. Kind of test: SPR; 2 mM G6P.
In test [4] the target is T1, Biotinylated human CI-MPR domains I-XV (residues 41Q-G2293) (human, UniProt P11717 41-2293, biotin (in vivo biotinylated by BirA)). Kind of test: SPR; 2 mM G6P.
T1 sequence (P11717 41-2293): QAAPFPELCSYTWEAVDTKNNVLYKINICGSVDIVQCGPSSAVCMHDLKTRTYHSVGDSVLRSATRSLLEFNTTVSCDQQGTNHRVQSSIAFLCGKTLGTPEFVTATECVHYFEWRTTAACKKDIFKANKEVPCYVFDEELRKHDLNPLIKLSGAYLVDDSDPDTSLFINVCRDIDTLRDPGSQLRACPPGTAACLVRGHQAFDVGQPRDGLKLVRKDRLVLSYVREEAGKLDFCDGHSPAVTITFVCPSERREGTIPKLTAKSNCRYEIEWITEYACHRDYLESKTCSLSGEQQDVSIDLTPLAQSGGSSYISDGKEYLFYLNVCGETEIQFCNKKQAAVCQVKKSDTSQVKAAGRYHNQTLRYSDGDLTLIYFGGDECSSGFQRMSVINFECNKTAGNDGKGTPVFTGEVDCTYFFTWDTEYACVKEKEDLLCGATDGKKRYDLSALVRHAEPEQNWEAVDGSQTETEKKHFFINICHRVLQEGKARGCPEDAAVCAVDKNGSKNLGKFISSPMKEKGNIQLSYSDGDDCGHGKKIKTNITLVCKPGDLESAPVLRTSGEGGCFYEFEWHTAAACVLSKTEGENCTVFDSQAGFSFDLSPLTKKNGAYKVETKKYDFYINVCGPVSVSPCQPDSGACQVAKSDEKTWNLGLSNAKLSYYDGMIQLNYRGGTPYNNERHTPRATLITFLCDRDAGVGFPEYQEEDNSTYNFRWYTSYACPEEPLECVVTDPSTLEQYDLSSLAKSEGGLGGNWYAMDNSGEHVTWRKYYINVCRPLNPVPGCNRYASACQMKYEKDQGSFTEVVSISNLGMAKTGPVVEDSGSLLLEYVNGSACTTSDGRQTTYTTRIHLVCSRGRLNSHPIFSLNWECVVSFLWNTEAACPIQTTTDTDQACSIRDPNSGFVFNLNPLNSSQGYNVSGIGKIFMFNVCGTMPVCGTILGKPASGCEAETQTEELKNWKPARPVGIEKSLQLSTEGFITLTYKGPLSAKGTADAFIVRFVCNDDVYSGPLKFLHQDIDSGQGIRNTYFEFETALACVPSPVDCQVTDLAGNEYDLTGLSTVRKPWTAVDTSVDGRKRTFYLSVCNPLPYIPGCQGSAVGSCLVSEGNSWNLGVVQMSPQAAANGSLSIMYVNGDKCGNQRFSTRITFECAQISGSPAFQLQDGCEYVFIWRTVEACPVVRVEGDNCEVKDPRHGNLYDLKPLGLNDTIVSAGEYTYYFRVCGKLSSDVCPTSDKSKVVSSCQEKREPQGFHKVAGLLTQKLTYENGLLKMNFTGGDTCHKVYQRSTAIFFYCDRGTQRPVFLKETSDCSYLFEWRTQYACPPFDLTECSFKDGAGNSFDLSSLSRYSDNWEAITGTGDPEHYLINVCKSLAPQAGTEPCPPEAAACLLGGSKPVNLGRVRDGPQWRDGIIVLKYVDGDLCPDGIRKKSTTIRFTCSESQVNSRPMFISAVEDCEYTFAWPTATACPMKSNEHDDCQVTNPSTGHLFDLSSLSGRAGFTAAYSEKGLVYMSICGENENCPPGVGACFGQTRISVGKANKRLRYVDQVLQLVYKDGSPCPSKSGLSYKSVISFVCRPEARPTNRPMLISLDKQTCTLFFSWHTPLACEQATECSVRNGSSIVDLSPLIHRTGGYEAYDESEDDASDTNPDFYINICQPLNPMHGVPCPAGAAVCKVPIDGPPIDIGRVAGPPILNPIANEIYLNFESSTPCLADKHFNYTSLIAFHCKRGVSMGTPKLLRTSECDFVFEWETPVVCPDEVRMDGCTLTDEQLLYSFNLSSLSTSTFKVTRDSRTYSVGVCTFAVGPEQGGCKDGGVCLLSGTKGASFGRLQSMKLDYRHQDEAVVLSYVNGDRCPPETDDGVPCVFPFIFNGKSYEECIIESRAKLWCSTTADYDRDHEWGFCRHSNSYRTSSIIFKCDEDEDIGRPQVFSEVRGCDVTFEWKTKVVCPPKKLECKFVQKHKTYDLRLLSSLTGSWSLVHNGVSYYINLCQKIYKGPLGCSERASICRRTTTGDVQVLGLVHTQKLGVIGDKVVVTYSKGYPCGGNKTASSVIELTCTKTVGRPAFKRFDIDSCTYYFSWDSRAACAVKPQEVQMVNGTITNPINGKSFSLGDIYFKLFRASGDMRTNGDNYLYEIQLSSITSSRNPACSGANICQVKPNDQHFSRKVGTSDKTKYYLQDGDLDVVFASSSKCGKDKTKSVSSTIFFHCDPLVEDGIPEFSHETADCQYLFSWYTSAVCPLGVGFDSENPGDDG
The target in test [5] is B5. Kind of test: SPR; 2 mM mannose.
For test [6], the target named is T1, Biotinylated human CI-MPR domains I-XV …. Kind of test: SPR; 2 mM mannose.
Test [7] deals with B5. Kind of test: SPR; pH 6.5.
For test [8], the target named is T1, Biotinylated human CI-MPR domains I-XV …. Kind of test: SPR; with 2 mM mannose.
Test [9] has the same target. Kind of test: SPR; buffer without sugar.
Test [10] concerns the target T2, H150T mutant LIMP-2 (human, UniProt Q14108 28-432, H150T).
T2 sequence: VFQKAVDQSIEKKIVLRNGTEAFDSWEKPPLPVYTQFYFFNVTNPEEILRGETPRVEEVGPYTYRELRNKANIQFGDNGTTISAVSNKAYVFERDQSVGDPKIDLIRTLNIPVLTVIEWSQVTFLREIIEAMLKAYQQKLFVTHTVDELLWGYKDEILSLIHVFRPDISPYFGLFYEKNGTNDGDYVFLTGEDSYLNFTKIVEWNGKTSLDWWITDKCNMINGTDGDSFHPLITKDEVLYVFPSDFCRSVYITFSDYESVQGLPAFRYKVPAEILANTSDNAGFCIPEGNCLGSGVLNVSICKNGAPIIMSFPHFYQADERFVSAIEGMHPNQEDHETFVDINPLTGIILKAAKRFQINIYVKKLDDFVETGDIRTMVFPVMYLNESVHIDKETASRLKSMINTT
Kind of test: SPR; pH 6.5.

The target of test [11] is T2, H150T mutant LIMP-2. Kind of test: SPR; pH 5.5.

B1: Human LIMP-2 luminal domain (residues 28-431) produced from HEK293T cells, with full glycosylation (domain or fragment)
chain: VFQKAVDQSIEKKIVLRNGTEAFDSWEKPPLPVYTQFYFFNVTNPEEILRGETPRVEEVGPYTYRELRNKANIQFGDNGTTISAVSNKAYVFERDQSVGDPKIDLIRTLNIPVLTVIEWSQVHFLREIIEAMLKAYQQKLFVTHTVDELLWGYKDEILSLIHVFRPDISPYFGLFYEKNGTNDGDYVFLTGEDSYLNFTKIVEWNGKTSLDWWITDKCNMINGTDGDSFHPLITKDEVLYVFPSDFCRSVYITFSDYESVQGLPAFRYKVPAEILANTSDNAGFCIPEGNCLGSGVLNVSICKNGAPIIMSFPHFYQADERFVSAIEGMHPNQEDHETFVDINPLTGIILKAAKRFQINIYVKKLDDFVETGDIRTMVFPVMYLNESVHIDKETASRLKSMINT
modifications: full glycosylation
One may read the Kd as the free concentration of one partner at which half of the binding sites on the other are occupied at equilibrium, for simple one-to-one binding. For B1, the Kd amounted to 2060 nM in test [1]; 2100 nM in [2]; 1800 nM in test [3]; 1160 nM in test [4]; 2830 nM in test [5]; 1200 nM in test [6].

B2: Wild-type LIMP-2 (soluble luminal domain; producing cells not stated for the experiment) (domain or fragment)
chain: VFQKAVDQSIEKKIVLRNGTEAFDSWEKPPLPVYTQFYFFNVTNPEEILRGETPRVEEVGPYTYRELRNKANIQFGDNGTTISAVSNKAYVFERDQSVGDPKIDLIRTLNIPVLTVIEWSQVHFLREIIEAMLKAYQQKLFVTHTVDELLWGYKDEILSLIHVFRPDISPYFGLFYEKNGTNDGDYVFLTGEDSYLNFTKIVEWNGKTSLDWWITDKCNMINGTDGDSFHPLITKDEVLYVFPSDFCRSVYITFSDYESVQGLPAFRYKVPAEILANTSDNAGFCIPEGNCLGSGVLNVSICKNGAPIIMSFPHFYQADERFVSAIEGMHPNQEDHETFVDINPLTGIILKAAKRFQINIYVKKLDDFVETGDIRTMVFPVMYLNESVHIDKETASRLKSMINT
Take B2: the affinity in [7], expressed as Kd, was 1200 nM.

B3: Human LIMP-2 luminal domain (residues 28-431) produced from HEK293S (GnTI-) cells, with limited glycosylation (domain or fragment)
chain: VFQKAVDQSIEKKIVLRNGTEAFDSWEKPPLPVYTQFYFFNVTNPEEILRGETPRVEEVGPYTYRELRNKANIQFGDNGTTISAVSNKAYVFERDQSVGDPKIDLIRTLNIPVLTVIEWSQVHFLREIIEAMLKAYQQKLFVTHTVDELLWGYKDEILSLIHVFRPDISPYFGLFYEKNGTNDGDYVFLTGEDSYLNFTKIVEWNGKTSLDWWITDKCNMINGTDGDSFHPLITKDEVLYVFPSDFCRSVYITFSDYESVQGLPAFRYKVPAEILANTSDNAGFCIPEGNCLGSGVLNVSICKNGAPIIMSFPHFYQADERFVSAIEGMHPNQEDHETFVDINPLTGIILKAAKRFQINIYVKKLDDFVETGDIRTMVFPVMYLNESVHIDKETASRLKSMINT
modifications: N-linked P-Man9GlcNAc2 (with terminal mannose 6-phosphate) at N325; sugars on all nine N-linked glycosylation sites, limited processing
Consider B3, for which the Kd is 1880 nM in test [8] and 1800 nM in test [9].

B4: Human LIMP-2 luminal domain produced from HEK293S (GNTI-) cells and deglycosylated with endoglycosidase F1 (domain or fragment)
chain: VFQKAVDQSIEKKIVLRNGTEAFDSWEKPPLPVYTQFYFFNVTNPEEILRGETPRVEEVGPYTYRELRNKANIQFGDNGTTISAVSNKAYVFERDQSVGDPKIDLIRTLNIPVLTVIEWSQVHFLREIIEAMLKAYQQKLFVTHTVDELLWGYKDEILSLIHVFRPDISPYFGLFYEKNGTNDGDYVFLTGEDSYLNFTKIVEWNGKTSLDWWITDKCNMINGTDGDSFHPLITKDEVLYVFPSDFCRSVYITFSDYESVQGLPAFRYKVPAEILANTSDNAGFCIPEGNCLGSGVLNVSICKNGAPIIMSFPHFYQADERFVSAIEGMHPNQEDHETFVDINPLTGIILKAAKRFQINIYVKKLDDFVETGDIRTMVFPVMYLNESVHIDKETASRLKSMINT
modifications: glycans trimmed to a single N-acetylglucosamine with endoglycosidase F1
B4: binding in test [1] was put at a Kd of 3000 nM.
Turning to B5, the Kd was found to be 2300 nM with H150T mutant LIMP-2 [10] and 2100 nM with H150T mutant LIMP-2 [11].
